# Data published in patent publication US20070184523A1 (Genentech, published 2007).
# Experiments:
# CH3 Y407A cavity mutant = target: T1, CH3 Y407A cavity mutant (human, UniProt P01857-1 224-330 = IgG part, Y407A); assay: calorimetry of a mixture of purified CH3 domains
# T1 construct: domain: CH3; Isolated CH3 domain secreted from E. coli; Positions follow Eu numbering; also called designed cavity mutant
# [1] = target: T2, CH3 T366S:L368A:Y407V cavity mutant (human, UniProt P01857-1 224-330 = IgG part, T366S; L368A; Y407V); assay: calorimetry of a 1:1 mixture of purified CH3 domains
# T2 construct: domain: CH3; Isolated CH3 domain secreted from E. coli; Positions follow Eu numbering; also called phage-selected cavity mutant
binder,measurement,setting,value
"CH3 T366W protuberance mutant (other, human, UniProt P01857-1 224-330, looked up, name in EU numbering, domain: CH3; Isolated CH3 domain secreted from E. coli (plasmid pAK19); Positions follow Eu numbering, not the UniProt entry) GQPREPQVYTLPPSRDELTKNQVSLWCLVKGFYPSDIAVEWESNGQPENNYKTTPPVLDSDGSFFLYSKLTVDKSRWQQGNVFSCSVMHEALHNHYTQKSLSLSPGK",binding result,CH3 Y407A cavity mutant,binds
same,binding result,[1],binds
